Reference: patent publication US8586034B2, “Cytomegalovirus disintegrin-like peptides” (priority 2004, dated 2013)

T1: β3 integrin (Homo sapiens, UniProt P05106)
T1 construct: endogenous in cells; host or cells: Normal Human Dermal Fibroblasts (NHDF), detergent lysate
T1 sequence (P05106 27-788): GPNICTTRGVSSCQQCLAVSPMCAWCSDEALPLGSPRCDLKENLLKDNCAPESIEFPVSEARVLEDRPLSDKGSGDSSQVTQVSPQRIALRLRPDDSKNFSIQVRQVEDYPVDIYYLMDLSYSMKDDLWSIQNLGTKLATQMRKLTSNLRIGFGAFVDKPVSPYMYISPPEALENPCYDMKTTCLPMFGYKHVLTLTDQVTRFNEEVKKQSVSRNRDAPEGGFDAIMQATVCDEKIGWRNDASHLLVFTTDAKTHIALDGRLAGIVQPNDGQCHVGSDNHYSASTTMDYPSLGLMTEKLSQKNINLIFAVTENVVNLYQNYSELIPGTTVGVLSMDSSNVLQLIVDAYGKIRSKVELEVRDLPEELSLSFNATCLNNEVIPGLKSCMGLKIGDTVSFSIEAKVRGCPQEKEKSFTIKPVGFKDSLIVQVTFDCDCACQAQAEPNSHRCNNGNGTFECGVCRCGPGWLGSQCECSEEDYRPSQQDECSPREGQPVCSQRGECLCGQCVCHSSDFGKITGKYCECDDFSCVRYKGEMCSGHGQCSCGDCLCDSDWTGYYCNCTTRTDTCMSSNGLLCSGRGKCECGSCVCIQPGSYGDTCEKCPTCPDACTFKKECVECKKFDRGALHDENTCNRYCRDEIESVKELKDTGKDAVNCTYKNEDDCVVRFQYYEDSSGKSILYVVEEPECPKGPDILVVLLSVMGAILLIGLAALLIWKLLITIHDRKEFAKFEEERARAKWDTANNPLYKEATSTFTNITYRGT


Legend:
NHDF cells = assay: Cytoskeletal rearrangement, actin staining with phalloidin; type: cell-based, human; conditions: compared to buffer alone
From the text: β1 integrins are known inducers of broad signal transduction events. […] To test the role of gBDLD in mediating signaling events, we stimulated NHDF cells with buffer alone, gBDLD, or a known cytoskeletal reorganizer (EGF), followed by actin staining with phalloidin.

[1] = target: Normal human dermal fibroblasts; assay: Protein binding assay, gBDLD to fibroblasts (His-tag ELISA)
Protocol: Normal human dermal fibroblasts were chilled to 4° C., washed three times with cold MES buffer and blocked with 1 mg/mL bovine serum albumin (BSA) for 30 minutes at 4° C. Unbound BSA was removed with cold MES washes (×4). The indicated amounts of gBDLD were added to each well for 90 minutes at 4° C. Cells were then washed three times with cold MES, twice with cold (phosphate-buffered saline (PBS) and fixed with 3% paraformaldehyde. An ELISA was then performed probing with anti-His rabbit polyclonal antibody (Santa Cruz Biotechnology, Santa Cruz, Calif.) and anti-rabbit HRP (Pierce). Absorbance was measured at 405 nm.
FIG. 7 is a graph depicting the results of a gBDLD binding assay (performed as described previously). Here, binding was measured by absorbance at 405 nm. […] To generate the data, human fibroblasts were incubated with gBDLD for the indicated times at 4° C. Cells were then washed, fixed and an ELISA was performed probing for the gBDLD […] his-tag. […]
FIG. 8 is a graph depicting gBDLD binding to human fibroblasts. As is readily apparent from FIG. 8, this binding is dose-dependent and saturable. […] After three IVIES washes and two PBS washes, cells were fixed in 3% paraformaldehyde and a His-tag ELISA was performed to quantitate gBDLD bound to cells.

HCMV-GFP = assay: HCMV infectivity assay (HCMV-GFP, flow cytometry); type: cell-based, Human cytomegalovirus; conditions: human fibroblasts
Protocol: NHDFs were washed three times with MES buffer followed by the addition of gBDLD for 60 minutes at 37° C. Cells were then washed twice with MES buffer, three times with PBS and inoculated with HCMV-GFP (MOI=0.5) in serum-free DMEM. After 60 minutes, virus was removed and a 30 second, low-pH citrate wash was performed to remove extracellular virus. Twenty-four hour, post-infection cells were harvested and flow cytometry was performed to assay for GFP-positive cells.
FIG. 9 is a graph depicting the results of an assay to determine if gBDLD blocks NHDF cells from infection with HCMV. The infectivity assay was performed as described in the earlier examples. Briefly, gBDLD or BSA was added to human fibroblasts for 60 minutes. Cells were then washed, followed by HCMV-GFP challenge for 60 minutes. Cells were then citrate washed to remove any extracellular virus and incubated overnight. Flow cytometry was performed to assay for GFP positive versus total cells. As is readily observed from FIG. 9, gBDLD exerts a dose-dependent inhibition of HCMV infectivity in the cells tested.

diI-labeled HCMV = type: cell-based, Human cytomegalovirus; conditions: gBDLD or BSA 320 μg/mL, soluble heparin 50 μg/mL; 24 hours post-infection
β1 integrin = target: T2, β1 integrin (Homo sapiens, UniProt P05556); assay: Integrin co-immunoprecipitation assay, β1; type: binding; conditions: human fibroblast lysates, nickel beads
T2 construct: endogenous in cells; host or cells: Normal Human Dermal Fibroblasts (NHDF), detergent lysate
Protocol: (§1) A T-175 flask of NHDFs was grown to complete confluence, washed three times in MES buffer and lysed in 1 mL MES buffer+1% TX-100 (a detergent). Lysate was spun at 10,000 g for 10 minutes to remove cell debris. Cell lysate (350 μL) was then incubated with 20 μg gBDLD for 4 hours at 4° C. The lysate+gBDLD mixture was then incubated with 50 μL Ni beads overnight at 4° C. Nickel beads were then washed three times and protein eluted by boiling and then adding reducing SDS-PAGE buffer. Proteins were separated by SDS-PAGE and Western blotted for β1 integrin (Chemicon-1965) or β3 (Chemicon) as previously described.^48
(§2) To identify the cellular receptor for gBDLD we performed co-immunoprecipitation studies. Briefly, gBDLD was incubated with human fibroblast lysates and pulled down with nickel-conjugated agarose beads.
(§3) Because gBDLD contains a known β1 integrin binding motif, gBDLD bound to its cellular receptor was isolated by SDS-PAGE and then Western blotted for either β1 or β3 integrin. The resulting gels are shown in FIG. 10 (β1) and FIG. 11 (β3).

β3 integrin = target: T1, β3 integrin; assay: Integrin co-immunoprecipitation assay, β3; type: binding; conditions: human fibroblast lysates, nickel beads
Protocol: as §1, §2, §3

[2] = Solubility of purified gBDLD in dialysis buffer; type: physicochemical; conditions: 55 mM MES, pH 5.5, 300 mM NaCl
Protocol: DNA sequence corresponding to amino acids 57-146 of HCMV AD 169 glycoprotein B disintegrin-like domain (“gBDLD”) was cloned into the bacterial expression vector pET-28a containing an N-terminal His-Tag with thrombin cleavage site and kanamycin resistance. (Commercially available from Novagen, San Diego, Calif.) gBDLD production was induced by the addition of 1 mM isopropyl-βD-thiogalactopyranoside (IPTG). E. coli Tuner strain containing pET-28a:gBDLD was grown at 37° C. in Luria-Bertani medium containing kanamycin (50 μg/mL) to an optical density at 600 nm of approximately 0.6. IPTG (1 mM) was added and the plates were incubated continuously for 4 h at 37° C. Cells were harvested by centrifugation at 4000 r/min for 10 min and pellets were resuspended in 1% Triton X-100/Ni-NTA buffer (300 mM NaCl/50 mM Tris-HCL pH 7.9) and lysed by 3×60 s bursts of sonication. The lysate was centrifuged at 15,000 r/min for 15 minutes at 4° C. The 8M urea/Ni-NTA fraction was then poured into a chromatography column containing nickel-nitriloacetic acid agarose (Ni-NTA) beads at 4° C. and allowed to flow through. […] Fractions containing protein were determined by measuring the absorbance of each fraction at 214 nm. Fractions that corresponded to absorption peaks were analyzed by sodium dodecyl sulfate polyacrylamide electrophoresis (SDS-PAGE) to determine the size of the protein. […]

T2 sequence (P05556 21-798): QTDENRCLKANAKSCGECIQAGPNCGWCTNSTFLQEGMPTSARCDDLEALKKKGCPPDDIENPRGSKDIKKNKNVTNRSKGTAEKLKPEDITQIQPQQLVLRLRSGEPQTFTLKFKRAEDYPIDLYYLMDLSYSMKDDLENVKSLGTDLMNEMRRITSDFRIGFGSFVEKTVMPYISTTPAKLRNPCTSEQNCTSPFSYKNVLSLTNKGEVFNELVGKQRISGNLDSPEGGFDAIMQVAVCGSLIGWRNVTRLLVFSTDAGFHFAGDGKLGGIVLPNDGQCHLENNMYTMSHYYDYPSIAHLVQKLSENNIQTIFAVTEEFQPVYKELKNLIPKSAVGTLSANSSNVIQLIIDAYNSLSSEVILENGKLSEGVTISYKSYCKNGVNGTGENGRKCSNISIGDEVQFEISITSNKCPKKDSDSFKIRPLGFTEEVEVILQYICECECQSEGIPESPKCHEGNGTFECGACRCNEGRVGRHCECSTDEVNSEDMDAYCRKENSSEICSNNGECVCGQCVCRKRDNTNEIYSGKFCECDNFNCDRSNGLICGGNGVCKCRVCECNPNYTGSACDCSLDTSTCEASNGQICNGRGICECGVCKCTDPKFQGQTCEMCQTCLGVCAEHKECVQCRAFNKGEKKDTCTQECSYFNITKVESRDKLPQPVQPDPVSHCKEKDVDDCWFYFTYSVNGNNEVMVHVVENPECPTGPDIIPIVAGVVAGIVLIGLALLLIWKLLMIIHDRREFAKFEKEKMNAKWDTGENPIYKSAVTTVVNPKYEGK

| Molecule | reorganization of the cytoskeleton (NHDF cells) | kinetics of gBDLD binding to human fibroblasts ([1]; 4° C., ELISA for his-tag) | concentration at which gBDLD binding to fibroblast monolayers reached saturation ([1]; 60 minutes, after BSA block) [µg/mL] | IC50 for HCMV neutralization (HCMV-GFP) [µg/mL] | IC50 (HCMV-GFP; read-out: IC50 for HCMV neutralization) [nM] | HCMV fusion (dye transfer) and gene expression (diI-labeled HCMV) | interaction with β1 integrin (pull down, Western blot) (β1 integrin) | interaction with β3 integrin (pull down, Western blot) (β3 integrin) | Solubility [2] |
| --- | --- | --- | --- | --- | --- | --- | --- | --- | --- |
| EGF: known cytoskeletal reorganizer (protein, UniProt P01133 23-1207, looked up, Pro-epidermal growth factor, known cytoskeletal reorganizer) Pro-epidermal growth factor: PQHWSCPEGTLAGNGNSTCVGPAPFLIFSHGNSIFRIDTEGTNYEQLVVDAGVSVIMDFHYNEKRIYWVDLERQLLQRVFLNGSRQERVCNIEKNVSGMAINWINEEVIWSNQQEGIITVTDMKGNNSHILLSALKYPANVAVDPVERFIFWSSEVAGSLYRADLDGVGVKALLETSEKITAVSLDVLDKRLFWIQYNREGSNSLICSCDYDGGSVHISKHPTQHNLFAMSLFGDRIFYSTWKMKTIWIANKHTGKDMVRINLHSSFVPLGELKVVHPLAQPKAEDDTWEPEQKLCKLRKGNCSSTVCGQDLQSHLCMCAEGYALSRDRKYCEDVNECAFWNHGCTLGCKNTPGSYYCTCPVGFVLLPDGKRCHQLVSCPRNVSECSHDCVLTSEGPLCFCPEGSVLERDGKTCSGCSSPDNGGCSQLCVPLSPVSWECDCFPGYDLQLDEKSCAASGPQPFLLFANSQDIRHMHFDGTDYGTLLSQQMGMVYALDHDPVENKIYFAHTALKWIERANMDGSQRERLIEEGVDVPEGLAVDWIGRRFYWTDRGKSLIGRSDLNGKRSKIITKENISQPRGIAVHPMAKRLFWTDTGINPRIESSSLQGLGRLVIASSDLIWPSGITIDFLTDKLYWCDAKQSVIEMANLDGSKRRRLTQNDVGHPFAVAVFEDYVWFSDWAMPSVMRVNKRTGKDRVRLQGSMLKPSSLVVVHPLAKPGADPCLYQNGGCEHICKKRLGTAWCSCREGFMKASDGKTCLALDGHQLLAGGEVDLKNQVTPLDILSKTRVSEDNITESQHMLVAEIMVSDQDDCAPVGCSMYARCISEGEDATCQCLKGFAGDGKLCSDIDECEMGVPVCPPASSKCINTEGGYVCRCSEGYQGDGIHCLDIDECQLGEHSCGENASCTNTEGGYTCMCAGRLSEPGLICPDSTPPPHLREDDHHYSVRNSDSECPLSHDGYCLHDGVCMYIEALDKYACNCVVGYIGERCQYRDLKWWELRHAGHGQQQKVIVVAVCVVVLVMLLLLSLWGAHYYRTQKLLSKNPKNPYEESSRDVRSRRPADTEDGMSSCPQPWFVVIKEHQDLKNGGQPVAGEDGQAADGSMQPTSWRQEPQLCGMGTEQGCWIPVSSDKGSCPQVMERSFHMPSYGTQTLEGGVEKPHSLLSANPLWQQRALDPPHQMELTQ | triggered a dramatic reorganization of the cytoskeleton |  |  |  |  |  |  |  |  |
| gBDLD: amino acids 57-146 of HCMV AD 169 glycoprotein B disintegrin-like domain, His-tagged, expressed in E. coli (protein, left off: small tags and cut ends, amino acids 57-146 of HCMV AD 169 glycoprotein B disintegrin-like domain, His-tagged, expressed in E. coli) VTSSEAVSHRANETIYNTTLKYGDVVGVNTTKYPYRVCSMAQGTDLIRFERNIICTSMKPINEDLDEGIMVVYKRNIVAHTFKVRVYQKV | triggered a dramatic reorganization of the cytoskeleton | rapid kinetics | 12.5 | 20.5 | 1960 | complete block | interacts | does not interact | approximately 1 mg/mL |
